# From paper PMC7954794, “Protein context shapes the specificity of SH3 domain-mediated interactions in vivo” (Nature Communications, 2021)
# Tested on: growth of yeast strains under 51 stress conditions
# Assay: Growth assays in 51 stress conditions (Fig. 1E-F, S2D, S5B)
# Assay type: cell-based, Saccharomyces cerevisiae
# Design: key to Growth (Fig. S2D) / growth of ABP1 SH3-swapped strains in stress condition: log2 colony size, average of median per strain (growth score)
# Conditions: FigS2D
# How it was run: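 Colony sizes at 74 h on 51 stress media (37 °C) were log2 transformed, corrected for plate effects, and averaged across two plates as per-plate medians (growth score). Strains arrayed in 12 replicates with WT border, grown first on YPD for two days at 30 °C.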
molecule,measurement,setting,value
"SDC25 (protein, UniProt P0CF34 1-1048, looked up) Putative truncated guanine …: MPITSSPDLFYLNDCDVVYWYDLTRLVCHYVNLTERDLLANEREKFLTSLDLLTAQITYVYMLFRNLRLVEDSFKKTLKKLIYTLSRFSINANIWFHSTLFEEREAIASQKDPERRSPLLQSILGTFQKFHFLLRLLHFLSNPNELTILPQLTPRFFKDSFNTISWNNPFLRKRLNQHMSHDLPRQMIKAVAGASGIVAENIDEIPASKQGTSCSSETSHHSPSAPFQRRRRGTIFSNVSGSSDESDTIWSKRKKPYPLNEETLSLVRARKKQLDGKLKQMIKSANEYLSNTANFSKMLNFEMNFKTYEEVSGTIPIIDILENLDLTIFLNLRELGDENRVFDEDVAIDDEDEEFLKHSLSSLSYILSDYFNMKQYFHDVVVKFIIVAQHLTLEDPFVFSPMQNDLPTGYYEPMKPSSLNLDNAKDKKNGSQNTDIQEEEDEYEPDPDSLILFHNLINQDSDFNDLKFFNLAHVFKKSCDDYFDVLKLAIEFVNQLILERENLLNYAARMMKNNITELLLRGEEGYGSYDGGETAEKSDTNAVYADSDTKDNDEWRDSQVKLPRYLQREYDSELIWGSNNRIKGGSKHALISYLTDNEKKDLFFDITFLITFRSIFTTTEFLSYLISQYNLDPPEDLCFEEYNEWVTKKLIPVKCRVVEIMTTFFKQYWFLGYDEPDLATLNLDYFAQVAIKENITGSVELLKEVNQKFKHGNIQEATAPMKTLDQQICQDHYSGTLYSTTESILAVDPVLFATQLTILEHEIYCEITIFDCLQKIWKNKYTKSYGASPGLNEFISFANKLTNFISYSVVKEADKSKRAKLLSHFIFIAEYCRKFNNFSSMTAIISALYSSPIYRLEKTWQAVIPQTRDLLQSLNKLMDPKKNFINYRNELKSLHSAPCVPFFGVYLSDLTFTDSGNPDYLVLEHGLKGVHDEKKYINFNKRSRLVDILQEIIYFKKTHYDFTKDRTVIECISNSLENIPHIEKQYQLSLIIEPKPRKKVVPNSNSNNKSQEKSRDDQTDEGKTSTKKDRFPKFQLHKTKKKAPKVSK",growth of ABP1 SH3-swapped strains in stress condition,Bathophenanthroline.0.1uM,10.8364
same,growth of ABP1 SH3-swapped strains in stress condition,Bathophenanthroline.10uM,10.6904
same,growth of ABP1 SH3-swapped strains in stress condition,Bathophenanthroline.1uM,10.7994
same,growth of ABP1 SH3-swapped strains in stress condition,CaCl2.100mM,10.8248
same,growth of ABP1 SH3-swapped strains in stress condition,CaCl2.250mM,10.7599
same,growth of ABP1 SH3-swapped strains in stress condition,CaCl2.500mM,10.2626
same,growth of ABP1 SH3-swapped strains in stress condition,Caffein.10mM,10.0769
same,growth of ABP1 SH3-swapped strains in stress condition,Caffein.2mM,11.0485
same,growth of ABP1 SH3-swapped strains in stress condition,CdCl2.100uM,9.5
same,growth of ABP1 SH3-swapped strains in stress condition,CdCl2.10uM,10.8639
same,growth of ABP1 SH3-swapped strains in stress condition,CdCl2.50uM,9.958
same,growth of ABP1 SH3-swapped strains in stress condition,CuSO4.1mM,10.5113
same,growth of ABP1 SH3-swapped strains in stress condition,CuSO4.5mM,8.27
same,growth of ABP1 SH3-swapped strains in stress condition,Cycloheximide.0.05.uM,11.0819
same,growth of ABP1 SH3-swapped strains in stress condition,Cycloheximide.0.2.uM,10.7047
same,growth of ABP1 SH3-swapped strains in stress condition,Cycloheximide.0.5.uM,10.178
same,growth of ABP1 SH3-swapped strains in stress condition,DMSO.2.,11.0639
same,growth of ABP1 SH3-swapped strains in stress condition,DMSO.6.,9.8939
same,growth of ABP1 SH3-swapped strains in stress condition,DMSO.8.,9.304
same,growth of ABP1 SH3-swapped strains in stress condition,Ethanol.2.,10.7995
same,growth of ABP1 SH3-swapped strains in stress condition,Ethanol.6.,10.2862
same,growth of ABP1 SH3-swapped strains in stress condition,Ethanol.8.,10.1201
same,growth of ABP1 SH3-swapped strains in stress condition,Galactose.2.,10.8278
same,growth of ABP1 SH3-swapped strains in stress condition,Glycerol.2.,9.649
same,growth of ABP1 SH3-swapped strains in stress condition,Hydroxyurea.25mM,10.7663
same,growth of ABP1 SH3-swapped strains in stress condition,Hygromycin.190uM,10.9932
same,growth of ABP1 SH3-swapped strains in stress condition,Hygromycin.19uM,11.0621
same,growth of ABP1 SH3-swapped strains in stress condition,Hygromycin.95uM,11.0036
same,growth of ABP1 SH3-swapped strains in stress condition,MMS.0.004.,10.9622
same,growth of ABP1 SH3-swapped strains in stress condition,MMS.0.02.,10.7008
same,growth of ABP1 SH3-swapped strains in stress condition,MMS.0.04.,9.99
same,growth of ABP1 SH3-swapped strains in stress condition,Menadione.100uM,10.5981
same,growth of ABP1 SH3-swapped strains in stress condition,Menadione.200uM,10.4339
same,growth of ABP1 SH3-swapped strains in stress condition,Menadione.50uM,10.8229
same,growth of ABP1 SH3-swapped strains in stress condition,NaCl.0.25M,10.7913
same,growth of ABP1 SH3-swapped strains in stress condition,NaCl.1M,9.689
same,growth of ABP1 SH3-swapped strains in stress condition,Nitroquinoline.10uM,10.6447
same,growth of ABP1 SH3-swapped strains in stress condition,Nitroquinoline.50uM,10.5332
same,growth of ABP1 SH3-swapped strains in stress condition,Nystatin.0.01uM,11.0104
same,growth of ABP1 SH3-swapped strains in stress condition,Nystatin.0.1uM,10.9861
same,growth of ABP1 SH3-swapped strains in stress condition,Raffinose.2.,11.0244
same,growth of ABP1 SH3-swapped strains in stress condition,Rapamycin.10nM,9.868
same,growth of ABP1 SH3-swapped strains in stress condition,Rapamycin.50nM,9.322
same,growth of ABP1 SH3-swapped strains in stress condition,SC.pH3,10.4118
same,growth of ABP1 SH3-swapped strains in stress condition,SC.pH6,11.0555
same,growth of ABP1 SH3-swapped strains in stress condition,SDS.0.01.,10.9877
same,growth of ABP1 SH3-swapped strains in stress condition,SDS.0.02.,11.0022
same,growth of ABP1 SH3-swapped strains in stress condition,SDS.0.05.,10.9318
same,growth of ABP1 SH3-swapped strains in stress condition,Sorbitol.10mM,10.9817
same,growth of ABP1 SH3-swapped strains in stress condition,Sorbitol.1mM,11.0284
same,growth of ABP1 SH3-swapped strains in stress condition,Sorbitol.5mM,10.9056
"PIN3 (protein, UniProt Q06449 2-215, looked up) [PSI+] inducibility protein 3: SASLINRSLTNIRTELDFLKGSNVISNDVYDQINKSLPAKWDPANAPRNASPASLEYVEALYQFDPQQDGDLGLKPGDKVQLLEKLSPEWYKGSCNGRTGIFPANYVKPAFSGSNGPSNLPPPPQYKAQELQQIPTQNSAASSYQQQPFPPPSTNYYQQPQQQPQQAPPPQQQQQQQQHQSSHSHLKSFGSKLGNAAIFGAGASIGSDIVNNIF",growth of ABP1 SH3-swapped strains in stress condition,Bathophenanthroline.0.1uM,10.8166
same,growth of ABP1 SH3-swapped strains in stress condition,Bathophenanthroline.10uM,10.6603
same,growth of ABP1 SH3-swapped strains in stress condition,Bathophenanthroline.1uM,10.7601
same,growth of ABP1 SH3-swapped strains in stress condition,CaCl2.100mM,10.8086
same,growth of ABP1 SH3-swapped strains in stress condition,CaCl2.250mM,10.7002
same,growth of ABP1 SH3-swapped strains in stress condition,CaCl2.500mM,10.193
same,growth of ABP1 SH3-swapped strains in stress condition,Caffein.10mM,10.1104
same,growth of ABP1 SH3-swapped strains in stress condition,Caffein.2mM,10.9501
same,growth of ABP1 SH3-swapped strains in stress condition,CdCl2.100uM,9.413
same,growth of ABP1 SH3-swapped strains in stress condition,CdCl2.10uM,10.8515
same,growth of ABP1 SH3-swapped strains in stress condition,CdCl2.50uM,9.821
same,growth of ABP1 SH3-swapped strains in stress condition,CuSO4.1mM,10.439
same,growth of ABP1 SH3-swapped strains in stress condition,CuSO4.5mM,7.85
same,growth of ABP1 SH3-swapped strains in stress condition,Cycloheximide.0.05.uM,11.0946
same,growth of ABP1 SH3-swapped strains in stress condition,Cycloheximide.0.2.uM,10.6691
same,growth of ABP1 SH3-swapped strains in stress condition,Cycloheximide.0.5.uM,10.0558
same,growth of ABP1 SH3-swapped strains in stress condition,DMSO.2.,10.999
same,growth of ABP1 SH3-swapped strains in stress condition,DMSO.6.,9.863
same,growth of ABP1 SH3-swapped strains in stress condition,DMSO.8.,9.083
same,growth of ABP1 SH3-swapped strains in stress condition,Ethanol.2.,10.7656
same,growth of ABP1 SH3-swapped strains in stress condition,Ethanol.6.,10.3279
same,growth of ABP1 SH3-swapped strains in stress condition,Ethanol.8.,10.22
same,growth of ABP1 SH3-swapped strains in stress condition,Galactose.2.,10.8019
same,growth of ABP1 SH3-swapped strains in stress condition,Glycerol.2.,9.823
same,growth of ABP1 SH3-swapped strains in stress condition,Hydroxyurea.25mM,10.7882
same,growth of ABP1 SH3-swapped strains in stress condition,Hygromycin.190uM,10.9875
same,growth of ABP1 SH3-swapped strains in stress condition,Hygromycin.19uM,10.9831
same,growth of ABP1 SH3-swapped strains in stress condition,Hygromycin.95uM,10.9742
same,growth of ABP1 SH3-swapped strains in stress condition,MMS.0.004.,10.989
same,growth of ABP1 SH3-swapped strains in stress condition,MMS.0.02.,10.7926
same,growth of ABP1 SH3-swapped strains in stress condition,MMS.0.04.,10.0504
same,growth of ABP1 SH3-swapped strains in stress condition,Menadione.100uM,10.5651
same,growth of ABP1 SH3-swapped strains in stress condition,Menadione.200uM,10.4599
same,growth of ABP1 SH3-swapped strains in stress condition,Menadione.50uM,10.8547
same,growth of ABP1 SH3-swapped strains in stress condition,NaCl.0.25M,10.7663
same,growth of ABP1 SH3-swapped strains in stress condition,NaCl.1M,9.587
same,growth of ABP1 SH3-swapped strains in stress condition,Nitroquinoline.10uM,10.765
same,growth of ABP1 SH3-swapped strains in stress condition,Nitroquinoline.50uM,10.634
same,growth of ABP1 SH3-swapped strains in stress condition,Nystatin.0.01uM,10.9089
same,growth of ABP1 SH3-swapped strains in stress condition,Nystatin.0.1uM,10.9679
same,growth of ABP1 SH3-swapped strains in stress condition,Raffinose.2.,10.9939
same,growth of ABP1 SH3-swapped strains in stress condition,Rapamycin.10nM,9.886
same,growth of ABP1 SH3-swapped strains in stress condition,Rapamycin.50nM,9.402
same,growth of ABP1 SH3-swapped strains in stress condition,SC.pH3,10.4061
same,growth of ABP1 SH3-swapped strains in stress condition,SC.pH6,11.0349
same,growth of ABP1 SH3-swapped strains in stress condition,SDS.0.01.,10.9539
same,growth of ABP1 SH3-swapped strains in stress condition,SDS.0.02.,10.9685
same,growth of ABP1 SH3-swapped strains in stress condition,SDS.0.05.,10.8165
same,growth of ABP1 SH3-swapped strains in stress condition,Sorbitol.10mM,10.9792
same,growth of ABP1 SH3-swapped strains in stress condition,Sorbitol.1mM,10.9728
same,growth of ABP1 SH3-swapped strains in stress condition,Sorbitol.5mM,10.9245
